Data from the supplement of paper PMC10567573.

B1: CCND1 (parent)
chain: IRRAYPDANLLNDRVLRAMLKAEE
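Further: lentivirally expressed fusions sorted by FACS into six bins by GFP to DsRed ratio, PSI derived from sequencing read proportions per bin multiplied by bin number.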

Variants of: B1
Assay: protein stability index of a GFP-peptide fusion (GPS, HEK-293T) (PSI 1-6); higher = more stable
Details: c terminus: a fixed tail appended
IRRAYPDANLINDRVLRAMLKAEE gave a protein stability index of 2.43. Variant IRRAYPDANLKNDRVLRAMLKAEE has a protein stability index of 3.33. With IRRAYPDANLMNDRVLRAMLKAEE the protein stability index was 1.92. IRRAYPDANLNNDRVLRAMLKAEE gave a protein stability index of 1.97. IRRAYPDANLPNDRVLRAMLKAEE gave a protein stability index of 2.48. For IRRAYPDANLQNDRVLRAMLKAEE, the protein stability index was 3.79. Variant IRRAYPDANLSNDRVLRAMLKAEE has a protein stability index of 3.01. IRRAYPDANLTNDRVLRAMLKAEE showed a protein stability index of 3.04. IRRAYPDANLVNDRVLRAMLKAEE showed a protein stability index of 2.72. IRRAYPDANLWNDRVLRAMLKAEE showed a protein stability index of 2.02. In the case of IRRAYPDANLLADRVLRAMLKAEE, the protein stability index is reported as 3.21. Variant IRRAYPDANLLCDRVLRAMLKAEE has a protein stability index of 2.51. In the case of IRRAYPDANLLDDRVLRAMLKAEE, the protein stability index is reported as 2.87. IRRAYPDANLLEDRVLRAMLKAEE gave a protein stability index of 3.41. IRRAYPDANLLFDRVLRAMLKAEE gave a protein stability index of 1.9. With IRRAYPDANLLGDRVLRAMLKAEE the protein stability index was 3.05. In the case of IRRAYPDANLLHDRVLRAMLKAEE, the protein stability index is reported as 2.5. In the case of IRRAYPDANLLKDRVLRAMLKAEE, the protein stability index is reported as 2.15. With IRRAYPDANLLPDRVLRAMLKAEE the protein stability index was 1.84. For IRRAYPDANLLQDRVLRAMLKAEE, the protein stability index was 2.39. Work on IRRAYPDANLLRDRVLRAMLKAEE yielded a protein stability index of 2.73. IRRAYPDANLLSDRVLRAMLKAEE showed a protein stability index of 2.11. Variant IRRAYPDANLLWDRVLRAMLKAEE has a protein stability index of 2.19. IRRAYPDANLLYDRVLRAMLKAEE gave a protein stability index of 2.52. In the case of IRRAYPDANLLNARVLRAMLKAEE, the protein stability index is reported as 2.28. Work on IRRAYPDANLLNCRVLRAMLKAEE yielded a protein stability index of 2.72. With IRRAYPDANLLNFRVLRAMLKAEE the protein stability index was 2.34. IRRAYPDANLLNHRVLRAMLKAEE showed a protein stability index of 2.2. In the case of IRRAYPDANLLNIRVLRAMLKAEE, the protein stability index is reported as 2.91. IRRAYPDANLLNKRVLRAMLKAEE showed a protein stability index of 2.45. In the case of IRRAYPDANLLNLRVLRAMLKAEE, the protein stability index is reported as 2.02. With IRRAYPDANLLNMRVLRAMLKAEE the protein stability index was 2.66. IRRAYPDANLLNNRVLRAMLKAEE gave a protein stability index of 2.02. For IRRAYPDANLLNPRVLRAMLKAEE, the protein stability index was 2.61. With IRRAYPDANLLNQRVLRAMLKAEE the protein stability index was 3.34. IRRAYPDANLLNRRVLRAMLKAEE gave a protein stability index of 3.68. In the case of IRRAYPDANLLNSRVLRAMLKAEE, the protein stability index is reported as 2.37. With IRRAYPDANLLNTRVLRAMLKAEE the protein stability index was 2.52. In the case of IRRAYPDANLLNVRVLRAMLKAEE, the protein stability index is reported as 1.54. In the case of IRRAYPDANLLNWRVLRAMLKAEE, the protein stability index is reported as 2.35. In the case of IRRAYPDANLLNDAVLRAMLKAEE, the protein stability index is reported as 2.3. For IRRAYPDANLLNDCVLRAMLKAEE, the protein stability index was 2.41. IRRAYPDANLLNDDVLRAMLKAEE gave a protein stability index of 1.56. In the case of IRRAYPDANLLNDEVLRAMLKAEE, the protein stability index is reported as 2.84. In the case of IRRAYPDANLLNDFVLRAMLKAEE, the protein stability index is reported as 2.56. IRRAYPDANLLNDGVLRAMLKAEE showed a protein stability index of 1.96. IRRAYPDANLLNDHVLRAMLKAEE gave a protein stability index of 1.74. IRRAYPDANLLNDIVLRAMLKAEE gave a protein stability index of 1.03. IRRAYPDANLLNDKVLRAMLKAEE gave a protein stability index of 1.83. In the case of IRRAYPDANLLNDLVLRAMLKAEE, the protein stability index is reported as 1.99. IRRAYPDANLLNDMVLRAMLKAEE gave a protein stability index of 2.81. For IRRAYPDANLLNDQVLRAMLKAEE, the protein stability index was 2.29. For IRRAYPDANLLNDTVLRAMLKAEE, the protein stability index was 3.07. IRRAYPDANLLNDYVLRAMLKAEE gave a protein stability index of 1.84. Variant IRRAYPDANLLNDRALRAMLKAEE has a protein stability index of 3.31. Variant IRRAYPDANLLNDRCLRAMLKAEE has a protein stability index of 2.61. Variant IRRAYPDANLLNDRDLRAMLKAEE has a protein stability index of 3.5. Work on IRRAYPDANLLNDRELRAMLKAEE yielded a protein stability index of 3.12. With IRRAYPDANLLNDRFLRAMLKAEE the protein stability index was 2.41. IRRAYPDANLLNDRGLRAMLKAEE gave a protein stability index of 3.37. With IRRAYPDANLLNDRHLRAMLKAEE the protein stability index was 4.36. IRRAYPDANLLNDRILRAMLKAEE gave a protein stability index of 1.99. In the case of IRRAYPDANLLNDRLLRAMLKAEE, the protein stability index is reported as 1.9. Work on IRRAYPDANLLNDRMLRAMLKAEE yielded a protein stability index of 1.9. In the case of IRRAYPDANLLNDRNLRAMLKAEE, the protein stability index is reported as 3.25. For IRRAYPDANLLNDRPLRAMLKAEE, the protein stability index was 3.51. In the case of IRRAYPDANLLNDRQLRAMLKAEE, the protein stability index is reported as 4.11. IRRAYPDANLLNDRRLRAMLKAEE gave a protein stability index of 3.57. Variant IRRAYPDANLLNDRSLRAMLKAEE has a protein stability index of 3.27. For IRRAYPDANLLNDRTLRAMLKAEE, the protein stability index was 3.33. For IRRAYPDANLLNDRWLRAMLKAEE, the protein stability index was 3.47. With IRRAYPDANLLNDRVARAMLKAEE the protein stability index was 3.43. Variant IRRAYPDANLLNDRVERAMLKAEE has a protein stability index of 4.28. For IRRAYPDANLLNDRVGRAMLKAEE, the protein stability index was 2.99. IRRAYPDANLLNDRVHRAMLKAEE showed a protein stability index of 3.38. For IRRAYPDANLLNDRVIRAMLKAEE, the protein stability index was 2.85. With IRRAYPDANLLNDRVKRAMLKAEE the protein stability index was 3.67. IRRAYPDANLLNDRVNRAMLKAEE showed a protein stability index of 3.65. IRRAYPDANLLNDRVPRAMLKAEE gave a protein stability index of 4.08. With IRRAYPDANLLNDRVQRAMLKAEE the protein stability index was 3.53. IRRAYPDANLLNDRVSRAMLKAEE showed a protein stability index of 4.52. With IRRAYPDANLLNDRVVRAMLKAEE the protein stability index was 2.94. With IRRAYPDANLLNDRVYRAMLKAEE the protein stability index was 3.66. Work on IRRAYPDANLLNDRVLCAMLKAEE yielded a protein stability index of 2.46. IRRAYPDANLLNDRVLDAMLKAEE gave a protein stability index of 2.12. With IRRAYPDANLLNDRVLEAMLKAEE the protein stability index was 2.22. IRRAYPDANLLNDRVLFAMLKAEE gave a protein stability index of 2.1. Work on IRRAYPDANLLNDRVLHAMLKAEE yielded a protein stability index of 2.31. With IRRAYPDANLLNDRVLIAMLKAEE the protein stability index was 1.82. For IRRAYPDANLLNDRVLLAMLKAEE, the protein stability index was 3.01. With IRRAYPDANLLNDRVLMAMLKAEE the protein stability index was 3.21. Variant IRRAYPDANLLNDRVLNAMLKAEE has a protein stability index of 2.61. For IRRAYPDANLLNDRVLPAMLKAEE, the protein stability index was 3.46. In the case of IRRAYPDANLLNDRVLQAMLKAEE, the protein stability index is reported as 2.68.
